{"source": "the RNAGym collection of RNA variant scans (doi:10.7554/elife.90254)", "parents": {"B1": {"name": "LINE1-mini (parent)", "chain": "GGCAGAGCUCAACACAGCGUGGCAAAGUGGCUGUGGCUAGACUGCC"}}, "data": [{"variants_of": "B1", "assay": "self-cleavage, relative activity (ratio to wild type); higher = more cleavage; in vitro, sequencing; the parent is a self-cleaving ribozyme", "values": [{"variant": "G29U U38A", "self-cleavage": 0.4}, {"variant": "G29U U38C", "self-cleavage": 0.47}, {"variant": "G29U U38G", "self-cleavage": 0.02}, {"variant": "G29C C31G", "self-cleavage": 0.34}, {"variant": "G29C C31U", "self-cleavage": 0.93}, {"variant": "G29C C31A", "self-cleavage": 1.34}, {"variant": "G29C G30C", "self-cleavage": 0.23}, {"variant": "G29C G30U", "self-cleavage": 0.67}, {"variant": "G29C G30A", "self-cleavage": 1.73}, {"variant": "G30A G44U", "self-cleavage": 0.18}, {"variant": "G30A G44C", "self-cleavage": 0.56}, {"variant": "G30A G44A", "self-cleavage": 0.64}, {"variant": "G30A C45U", "self-cleavage": 1.57}, {"variant": "G30A C45G", "self-cleavage": 0.4}, {"variant": "G30A C45A", "self-cleavage": 0.71}, {"variant": "G30A C37G", "self-cleavage": 0.06}, {"variant": "G30A C37A", "self-cleavage": 0.05}, {"variant": "G30A C37U", "self-cleavage": 0.11}, {"variant": "G30A U38A", "self-cleavage": 0.72}, {"variant": "G29U A41C", "self-cleavage": 0.05}, {"variant": "G29U A41G", "self-cleavage": 0.41}, {"variant": "G29U A41U", "self-cleavage": 0.9}, {"variant": "G30A G33A", "self-cleavage": 0.1}, {"variant": "G30A G33U", "self-cleavage": 0.08}, {"variant": "G30A G33C", "self-cleavage": 0.07}, {"variant": "G29C C45U", "self-cleavage": 0.67}, {"variant": "G29C C45G", "self-cleavage": 0.19}, {"variant": "G29C C45A", "self-cleavage": 0.45}, {"variant": "G29U G44A", "self-cleavage": 0.41}, {"variant": "G29U G44U", "self-cleavage": 0.31}, {"variant": "G29U G44C", "self-cleavage": 0.44}, {"variant": "G29A G36U", "self-cleavage": 0.09}, {"variant": "G29C A41C", "self-cleavage": 0.04}, {"variant": "G29C A41G", "self-cleavage": 0.21}, {"variant": "G29C A41U", "self-cleavage": 0.32}, {"variant": "G29A U38G", "self-cleavage": 0.01}, {"variant": "G29A U38C", "self-cleavage": 0.44}, {"variant": "G29A U38A", "self-cleavage": 0.28}, {"variant": "G29U U43A", "self-cleavage": 0.2}, {"variant": "G29U U43C", "self-cleavage": 0.08}, {"variant": "G29U U43G", "self-cleavage": 0}, {"variant": "G30A C31G", "self-cleavage": 0.09}, {"variant": "G30A C31A", "self-cleavage": 0.4}, {"variant": "G30A C31U", "self-cleavage": 0.14}, {"variant": "G30A", "self-cleavage": 1.87}, {"variant": "G29C G36A", "self-cleavage": 0.02}, {"variant": "G29C G36C", "self-cleavage": 0.05}, {"variant": "G29C G36U", "self-cleavage": 0.04}, {"variant": "G29C C46G", "self-cleavage": 0.52}, {"variant": "G29C C46U", "self-cleavage": 0.6}, {"variant": "G29C C46A", "self-cleavage": 0.68}, {"variant": "G30A U32A", "self-cleavage": 0.13}, {"variant": "G30A U32G", "self-cleavage": 0.41}, {"variant": "G30A U32C", "self-cleavage": 0.21}, {"variant": "G29C U43G", "self-cleavage": 0.01}, {"variant": "G29C U43C", "self-cleavage": 0.26}, {"variant": "G29C U43A", "self-cleavage": 0.03}, {"variant": "G29U C42A", "self-cleavage": 0.14}, {"variant": "G29U C42G", "self-cleavage": 0.04}, {"variant": "G29U C42U", "self-cleavage": 0.44}, {"variant": "G29U C45G", "self-cleavage": 0.78}, {"variant": "G29U C45A", "self-cleavage": 0.63}, {"variant": "G29U C45U", "self-cleavage": 1.99}, {"variant": "G29U C46G", "self-cleavage": 0.93}, {"variant": "G29U C46U", "self-cleavage": 1.51}, {"variant": "G29U C46A", "self-cleavage": 0.82}, {"variant": "G30A U34G", "self-cleavage": 0.11}, {"variant": "G30A U34A", "self-cleavage": 0.05}, {"variant": "G30A U34C", "self-cleavage": 0.12}, {"variant": "G29U G36U", "self-cleavage": 0.05}, {"variant": "G29U G36C", "self-cleavage": 0.1}, {"variant": "G29U G36A", "self-cleavage": 0.17}, {"variant": "G29A U32A", "self-cleavage": 0.4}, {"variant": "G29A U32G", "self-cleavage": 0.46}, {"variant": "G29A U32C", "self-cleavage": 0.18}, {"variant": "G29A U43G", "self-cleavage": 0.04}, {"variant": "G29A U43A", "self-cleavage": 0.16}, {"variant": "G29A U43C", "self-cleavage": 0.08}, {"variant": "G30A G36U", "self-cleavage": 0.1}, {"variant": "G30A G36A", "self-cleavage": 0.43}, {"variant": "G30A G36C", "self-cleavage": 0.07}, {"variant": "G29C", "self-cleavage": 0.49}, {"variant": "G29U", "self-cleavage": 1.09}, {"variant": "G29U G35U", "self-cleavage": 0.14}, {"variant": "G29U G35A", "self-cleavage": 0.32}, {"variant": "G29U G35C", "self-cleavage": 0.08}, {"variant": "G29A U34C", "self-cleavage": 0.08}, {"variant": "G29A U34A", "self-cleavage": 0.19}, {"variant": "G29A U34G", "self-cleavage": 0.38}, {"variant": "G29C C37A", "self-cleavage": 0.02}, {"variant": "G29C C37U", "self-cleavage": 0.02}, {"variant": "G29C C37G", "self-cleavage": 0.02}, {"variant": "G29U U34G", "self-cleavage": 0.27}, {"variant": "G29U U34A", "self-cleavage": 0.37}, {"variant": "G29U U34C", "self-cleavage": 0.13}, {"variant": "G29U G30A", "self-cleavage": 1.92}, {"variant": "G29U G30U", "self-cleavage": 1.72}, {"variant": "G29U G30C", "self-cleavage": 0.69}, {"variant": "G29A G40U", "self-cleavage": 0.12}, {"variant": "G29A G40C", "self-cleavage": 0.08}, {"variant": "G29A G40A", "self-cleavage": 0.11}, {"variant": "G29C U32A", "self-cleavage": 0.31}, {"variant": "G29C U32C", "self-cleavage": 0.7}, {"variant": "G29C U32G", "self-cleavage": 0.2}, {"variant": "G29C U34C", "self-cleavage": 0.1}, {"variant": "G29C U34G", "self-cleavage": 0.2}, {"variant": "G29C U34A", "self-cleavage": 0.28}, {"variant": "G30A G40A", "self-cleavage": 0.19}, {"variant": "G30A G40C", "self-cleavage": 0.16}, {"variant": "G30A G40U", "self-cleavage": 0.18}, {"variant": "G29A G44C", "self-cleavage": 0.34}, {"variant": "G29A G44U", "self-cleavage": 0.26}, {"variant": "G29A G44A", "self-cleavage": 0.36}, {"variant": "G29C G44A", "self-cleavage": 0.15}, {"variant": "G29C G44C", "self-cleavage": 0.29}, {"variant": "G29C G44U", "self-cleavage": 0.37}, {"variant": "G30A C42G", "self-cleavage": 0.05}, {"variant": "G30A C42A", "self-cleavage": 0.14}, {"variant": "G30A C42U", "self-cleavage": 0.6}, {"variant": "G29U G40C", "self-cleavage": 0.14}, {"variant": "G29U G40U", "self-cleavage": 0.18}, {"variant": "G29U G40A", "self-cleavage": 0.15}, {"variant": "G29U U32C", "self-cleavage": 0.16}, {"variant": "G29U U32A", "self-cleavage": 0.34}, {"variant": "G29U U32G", "self-cleavage": 0.27}, {"variant": "G30A G35C", "self-cleavage": 0.08}, {"variant": "G30A G35A", "self-cleavage": 0.12}, {"variant": "G30A G35U", "self-cleavage": 0.09}, {"variant": "G29C A39U", "self-cleavage": 0.15}, {"variant": "G29C A39G", "self-cleavage": 0.03}, {"variant": "G29C A39C", "self-cleavage": 0.06}, {"variant": "G29C C42G", "self-cleavage": 0.02}, {"variant": "G29C C42U", "self-cleavage": 0.22}, {"variant": "G29C C42A", "self-cleavage": 0.1}, {"variant": "G30A A39U", "self-cleavage": 1.69}, {"variant": "G30A A39G", "self-cleavage": 0.11}, {"variant": "G30A A39C", "self-cleavage": 0.4}, {"variant": "G29C G40C", "self-cleavage": 0.05}, {"variant": "G29C G40U", "self-cleavage": 0.07}, {"variant": "G29C G40A", "self-cleavage": 0.07}, {"variant": "G29C G35C", "self-cleavage": 0.15}, {"variant": "G29C G35U", "self-cleavage": 0.06}, {"variant": "G29C G35A", "self-cleavage": 0.13}, {"variant": "G29U A39C", "self-cleavage": 0.21}, {"variant": "G29U A39U", "self-cleavage": 0.7}, {"variant": "G29U A39G", "self-cleavage": 0.06}, {"variant": "G29C G33U", "self-cleavage": 0.36}, {"variant": "G29C G33C", "self-cleavage": 0.1}, {"variant": "G29C G33A", "self-cleavage": 0.12}, {"variant": "G29U G33C", "self-cleavage": 0.06}, {"variant": "G29U G33U", "self-cleavage": 0.12}, {"variant": "G29U G33A", "self-cleavage": 0.1}, {"variant": "G29C U38C", "self-cleavage": 0.11}, {"variant": "G29C U38A", "self-cleavage": 0.08}, {"variant": "G29C U38G", "self-cleavage": 0.02}, {"variant": "G29U C31A", "self-cleavage": 0.15}, {"variant": "G29U C31U", "self-cleavage": 0.19}, {"variant": "G29U C31G", "self-cleavage": 0.13}, {"variant": "G30A A41G", "self-cleavage": 0.27}, {"variant": "G30A A41U", "self-cleavage": 0.6}, {"variant": "G30A A41C", "self-cleavage": 0.07}, {"variant": "G29U C37U", "self-cleavage": 0.05}, {"variant": "G29U C37G", "self-cleavage": 0.04}, {"variant": "G29U C37A", "self-cleavage": 0.13}, {"variant": "G30A C46G", "self-cleavage": 1.5}, {"variant": "G30A C46U", "self-cleavage": 1.33}, {"variant": "G30A C46A", "self-cleavage": 1.15}]}]}
